Experimental data from patent US20070167369A1, “Novel use of isolated polypeptide comprising four FAS-1 domains, EM1 domain and RGD motif” (KYUNGPOOK NATIONAL UNIVERSITY INDUSTRY-ACADEMIC COOPERATION …, priority 2004, published 2007).

B1: fas-1 domain: recombinant protein containing the fourth fas-1 domain of human βig-h3 (SEQ ID NO: 64) (protein, listed as Homo sapiens)
chain: MGTVMDVLKGDNRFSMLVAAIQSAGLTETLNREGVYTVFAPTNEAFRALPPRERSRLLGDAKELANILKYHIGDEILVSGGIGALVRLKSLQGDKLEVSLKNNVVSVNKEPVAEPDIMATNGVVHVITNVL
B2: truncated βig-h3: recombinant human βig-h3 with EMI domain, all four fas-1 domains and RGD motif; residues 68-653 of SEQ ID NO: 1 (SEQ ID NO: 66) (protein, listed as Homo sapiens)
chain: WYQRKICGKSTVISYECCPGYEKVPGEKGCPAALPLSNLYETLGVVGSTTTQLYTDRTEKLRPEMEGPGSFTIFAPSNEAWASLPAEVLDSLVSNVNIELLNALRYHMVGRRVLTDELKHGMTLTSMYQNSNIQIHHYPNGIVTVNCARLLKADHHATNGVVHLIDKVISTITNNIQQIIEIEDTFETLRAAVAASGLNTMLEGNGQYTLLAPTNEAFEKIPSETLNRILGDPEALRDLLNNHILKSAMCAEAIVAGLSVETLEGTTLEVGCSGDMLTINGKAIISNKDILATNGVIHYIDELLIPDSAKTLFELAAESDVSTAIDLFRQAGLGNHLSGSERLTLLAPLNSVFKDGTPPIDAHTRNLLRNHIIKDQLASKYLYHGQTLETLGGKKLRVFVYRNSLCIENSCIAAHDKRGRYGTLFTMDRVLTPPMGTVMDVLKGDNRFSMLVAAIQSAGLTETLNREGVYTVFAPTNEAFRALPPRERSRLLGDAKELANILKYHIGDEILVSGGIGALVRLKSLQGDKLEVSLKNNVVSVNKEPVAEPDIMATNGVVHVITNVLQPPANRPQERGDELADSALEI

Assays:
[1] = tested on: HUVECs; experiment: Inhibition of βig-h3-mediated endothelial cell adhesion (Example 4-1); type: cell-based, human
Protocol: HUVECs were suspended in medium at a density of 3×10^5 cells/ml, and 0.1 ml of the cell suspension was added with the fourth fas-1 domain of βig-h3 (βig-h3 D-IV) prepared in Example 1, at concentrations of 5 μM, 10 μM and 20 μM, respectively, and preincubated at 37° C. for 30 minutes. The preincubated cells were added to each well of the 96-well plate precoated with a recombinant βig-h3 His-1-b protein. Then, the cells were tested in the same manner as in Example 2. A control was treated with 2% BSA.

[2] = tested on: melanoma cells (B16F10); experiment: Apoptosis by annexin V staining/FACS, melanoma cells (Example 7-1); type: cell-based, murine; conditions: 48 hours
Protocol: Annexin V is a protein binding to calcium-dependent phospholipid, and known to have a strong affinity for phosphatidylserine such that apoptosis can be assayed. For this reason, the present inventors performed a test using an annexin V staining kit (Santa Cruz Biotechnology Inc.).
Each of human umbilical vein endothelial cells (HUVECs) and melanoma cells (B16F10) was suspended in medium at a density of 5×10^5 cells/ml, added to each well of […] and incubated at 37° C. overnight. On the next day, the cells were washed one time with PBS buffer, then added with serum-free medium and incubated at 37° C. for 24 hours. 0.2% FBS-containing fresh medium was treated with the fas-1 domain (βig-h3 D-IV) prepared in Example 1, at various concentrations, then added to each well of the plate and incubated at 37° C. for 48 hours. A negative control was added with PBS, a positive control was incubated with TNF-α or Vitamin C, which are known to induce the apoptosis of endothelial cells and melanoma cells. FITC (fluorescein isothiocyanate)-conjugated annexin V antibodies were added and allowed to react at 4° C. for one hour. After completion of the reaction, unbound annexin V antibodies were removed with PBS buffer, and the apoptosis of the cells was analyzed using FACS (BD Biosciences).

[3] = tested on: pc/HEK293 cells; experiment: Apoptosis by annexin V staining, pc/HEK293 control cells (Example 8); type: cell-based; conditions: annexin V FACS
Protocol: A control cell was transfected with a pcDNA3 vector containing no β3 cDNA or β5 cDNA fragment, and named “pc/HEK293”.
pc/HEK293 cells, β3/HEK293 cells and β5/HEK293 cells were stained with annexin V to identify an integrin that mediates the induction of endothelial cell apoptosis by the fas-1 domain. Each of the cells was suspended in medium at a density of 5×10^5 cells/ml, added to each well of 6-well plated and incubated at 37° C. overnight. Following this, a test was performed in the same manner as in Example 7-1 above.

[4] = tested on: melanoma cells (B16F10); experiment: Proliferation of fas-1-overexpressing melanoma cells, MTT (Example 10-1); type: cell-based, murine; conditions: fas-1 domain overexpressed (fas-1/B16F10) vs pLNCX/B16F10, 48-72 hours
Protocol: cDNA (SEQ ID NO: 65) encoding the fourth fas-1 domain of βig-h3 was cloned into the EcoRI/XhoI sites of a pLNCX retrovirus vector (Clontech Lab. Inc., USA). The resulting recombinant retrovirus vector was named “fas-1/pLNCX”. Packaging cell PT67 (Clontech Lab. Inc., USA) were transfected with the fas-1/pLNCX vector using lipofectamine. The transformed cells were incubated at 37° C. for 48 hours. After completion of the incubation, virus particles present in the culture medium were collected, and filtered one time through a 0.45-μm filter. The filtered virus particles were added to a culture medium of melanoma cells (B16F10), and then allowed to react at 37° C. for 6 hours. The culture medium was replaced with fresh medium, and the transfected cells were screened several times in the presence of 1 mg/ml of G418. Western blot analysis using a βig-h3 antibody was performed to confirm that the fas-1 domain is overexpressed in the screened transfected cells. As a result, fas-1-overexpressing melanoma cells (hereinafter, referred to as “fas-1/B16F10”) were prepared. […]
Each of the fas-1-overexpressing melanoma cells (fas-1/B16F10) and the control cells (pLNCX/B16F10) was suspended in medium at a density of 3×10^4 cells/ml, and 0.1 ml of the cell suspension was added to each well of a 96-well plate. […] Thereafter, the absorbance was measured at 570 nm in a Bio-Rad model 550 microplate reader.

[5] = tested on: HUVECs; experiment: Endothelial cell adhesion to plates coated with βig-h3 or its fas-1 domains (Example 2); type: cell-based, human; conditions: plate coated with 10 μg/ml protein; absorbance 405 nm
Protocol: Cell adhesion assay was performed according to the method described by Kim, J.-E. et al., J. Biol. Chem., 277:46159-46165, 2002. For this purpose, 10 μg/ml of each of the recombinant proteins (βig-h3 His-1-b, βig-h3 D-I, βig-h3 D-II, βig-h3 D-III and βig-h3 D-IV) prepared in Example 1 was placed into a flat-bottomed 96-well ELISA (enzyme-linked immunosorbent assay) plate (Costar, Corning Inc., NY) and then incubated overnight at 4° C., to coat the surface of the plate. As a control, 2% BSA was coated on the plate. Then, the plate was treated with PBS (phosphate-buffered saline) containing 2% BSA, and blocked at room temperature for one hour.
Meanwhile, HUVECs (human umbilical vein endothelial cells; Clonetics, San Diego, Calif.) were incubated in EGM medium (Clonetics, San Diego, Calif.) containing 2% FBS (Fetal Bovine Serum) under a condition of 37° C. and 5% CO2. The incubated cells were suspended in medium at a density of 3×10^5 cells/ml, and 0.1 ml of the cell suspension was added to each well of the plate. Next, the cells were incubated at 37° C. for 30 minutes and washed one time with PBS buffer to remove cells which had not been attached to the plate. […] The absorbance was measured at a 405-nm in a Bio-Rad model 550 microplate reader. Here, the higher the number of cells adhered to the plate, the higher the absorbance.

Row | Molecule | inhibition of βig-h3-mediated adhesion of endothelial cells ([1]; 5 μM) | inhibitory effect of endothelial cell adhesion compared with YH motif-containing peptide fragment of 18 amino acids ([1]; 20 μM fas-1 domain vs 1,000 μM YH peptide) | inhibition of βig-h3-mediated adhesion of endothelial cells ([1]; 5, 10 and 20 μM) | induction of apoptosis of B16F10 cells [2] | induction of apoptosis of pc/HEK293 cells [3] | effect on proliferation of melanoma cells [4] | adhesion of endothelial cells to coated protein [5]
1 | B1 | inhibited | higher | inhibited in a dose-dependent manner | did not induce the apoptosis of B16F10 cells | not induced | no effect on the proliferation of melanoma cells | 
2 | B2 |  |  |  |  |  |  | mediated the adhesion of endothelial cells
